Results published in patent US20250381255A1 (ANOKION, published 2025).
Residue numbers refer to the chain shown, from its start. One block for each binder: values may come before it.

What was measured:
[1] = biological target: T1, human asialoglycoprotein receptor 1 (ASGR1) extracellular domain (human, UniProt P07306 62-291); experiment: apparent KD from biochemical characterisation; method not named for this value (Example 1 describes Octet BLI: IgG on AHC sensors, 100 nM ASGR1, 1:1 model); mAb-60819
T1 construct: The methods speak of 'human ASGR1-His'; The results paragraph says only 'ASGR1'; also called human ASGR1-His; ASGR1 ECD
T1 sequence: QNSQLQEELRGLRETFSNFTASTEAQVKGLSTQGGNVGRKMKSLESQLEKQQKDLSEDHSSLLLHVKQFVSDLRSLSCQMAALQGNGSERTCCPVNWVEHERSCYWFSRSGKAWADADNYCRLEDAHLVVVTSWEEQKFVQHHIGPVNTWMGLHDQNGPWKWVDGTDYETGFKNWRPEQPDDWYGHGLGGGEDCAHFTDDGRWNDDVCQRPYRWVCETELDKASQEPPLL

[2] = biological target: T1, human asialoglycoprotein receptor 1 …; experiment: apparent KD from biochemical characterisation; method not named for this value (Example 1 describes Octet BLI: IgG on AHC sensors, 100 nM ASGR1, 1:1 model); mAb-60869
[3] = biological target: T1, human asialoglycoprotein receptor 1 …; experiment: apparent KD from biochemical characterisation; method not named for this value (Example 1 describes Octet BLI: IgG on AHC sensors, 100 nM ASGR1, 1:1 model); mAb-60856
[4] = biological target: T1, human asialoglycoprotein receptor 1 …; experiment: apparent KD from biochemical characterisation; method not named for this value (Example 1 describes Octet BLI: IgG on AHC sensors, 100 nM ASGR1, 1:1 model)

Kd [1]: 9.29 nM
B1: mAb-60819 (antibody, V domains shown)
VH: QVQLVQSGAEVKKPGSSVKVSCKASGGTFSNYAISWVRQAPGQGLEWMGGIIPIFGTANYAQKFQGRVTITADESTSTAYMELSSLRSEDTAVYYCAREARVAGTRPRGFDIWGQGTMVTVSS
VL: EIVLTQSPATLSLSPGERATLSCRASQSVSSYLAWYQQKPGQAPRLLIYDASNRATGIPARFSGSGSGTDFTLTISSLEPEDFAVYYCQQLNNFPPTFGGGTKVEIK

Kd [2]: 3.22 nM
B2: mAb-60869 (antibody, V domains shown)
VH: EVQLLESGGGLVQPGGSLRLSCAASGFTFSNYAMSWVRQAPGKGLEWVSAISGSGGSTYHADSVKGRFTISRDNSKNTLYLQMNSLRAEDTAVYYCARDAPYRGGHYFDLWGRGTLVTVSS
VL: B1 VL with N92A, N93S, F94W
notes: also called anti-ASGR1 antibody mAb-60869

Kd [3]: 9.29 nM
B3: mAb-60856 (antibody, V domains shown)
VH: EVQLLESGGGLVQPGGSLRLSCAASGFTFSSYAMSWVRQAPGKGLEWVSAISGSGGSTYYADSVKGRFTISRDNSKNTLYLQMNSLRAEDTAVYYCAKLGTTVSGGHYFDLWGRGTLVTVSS
VL: B1 VL with N53K, L91D, N92S, F94H, P96L
notes: also called anti-ASGR1 antibody mAb-60856

Kd [4]: ~3 nM
B4: mAb-60881 (antibody, V domains shown)
VH: QVQLQESGPGLVKPSETLSLTCAVSGYSISSGYYWGWIRQPPGKGLEWIGSIYHSGSTYYNPSLKSRVTISVDTSKNQFSLKLSSVTAADTAVYYCAREAGYPERGYGMDVWGQGTTVTVSS
VL: EIVMTQSPATLSVSPGERATLSCRASQSVSSNLAWYQQKPGQAPRLLIYGASTRATGIPARFSGSGSGTEFTLTISSLQSEDFAVYYCQQYFHHPFTFGGGTKVEIK
notes: Made as IgG
